Measured values reported in US20120316071A1 (published 2012).
Substitutions are numbered along the chain they refer to. Names may count otherwise.

Assays:
[1] = molecular target: T1, rHuman Notch-1/Fc Chimera, CF (R&D Systems Cat#3647-TK) (human, UniProt P46531 19-526); experiment: MSD Multispot ECL, antigen spotted on plate, Fab in solution; blank spot of the row 337
T1 construct: Bought recombinant Fc chimera; Fc part of the bought chimera not given

[2] = molecular target: T2, rHuman HGF R/c-MET/Fc Chimera, CF (R&D Systems Cat#358-MT/CF) (human, UniProt P08581 25-932); experiment: as above
T2 construct: Bought recombinant Fc chimera; also called HGF R/Fc; hepatocyte growth factor receptor; Fc part of the bought chimera not given
T2 sequence (P08581 25-932, change not shown): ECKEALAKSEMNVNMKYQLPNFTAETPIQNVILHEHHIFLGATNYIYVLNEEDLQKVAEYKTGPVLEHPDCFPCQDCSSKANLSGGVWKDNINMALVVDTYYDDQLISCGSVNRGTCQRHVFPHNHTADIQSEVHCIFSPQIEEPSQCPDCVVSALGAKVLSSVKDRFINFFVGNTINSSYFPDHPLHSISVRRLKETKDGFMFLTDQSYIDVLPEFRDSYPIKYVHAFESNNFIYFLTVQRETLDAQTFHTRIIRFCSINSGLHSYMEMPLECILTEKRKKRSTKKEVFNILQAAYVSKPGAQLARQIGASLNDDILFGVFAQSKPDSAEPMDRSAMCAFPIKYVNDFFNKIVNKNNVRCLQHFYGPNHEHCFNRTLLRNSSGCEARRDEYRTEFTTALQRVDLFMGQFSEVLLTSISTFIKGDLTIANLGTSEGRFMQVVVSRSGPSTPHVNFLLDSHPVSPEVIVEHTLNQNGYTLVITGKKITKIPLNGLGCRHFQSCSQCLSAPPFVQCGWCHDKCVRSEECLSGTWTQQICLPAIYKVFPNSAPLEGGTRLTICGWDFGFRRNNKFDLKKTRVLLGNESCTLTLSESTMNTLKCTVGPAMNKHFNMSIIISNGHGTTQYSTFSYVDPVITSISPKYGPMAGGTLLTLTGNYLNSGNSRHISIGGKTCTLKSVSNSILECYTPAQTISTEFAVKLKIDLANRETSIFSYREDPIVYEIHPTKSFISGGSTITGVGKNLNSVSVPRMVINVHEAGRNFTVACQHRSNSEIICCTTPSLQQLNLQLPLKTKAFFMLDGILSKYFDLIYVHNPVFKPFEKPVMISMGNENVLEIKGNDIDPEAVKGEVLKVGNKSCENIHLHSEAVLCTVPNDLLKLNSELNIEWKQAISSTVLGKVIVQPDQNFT

[3] = molecular target: T3, rHuman CD44/Fc Chimera, CF (R&D Systems Cat#3660-CD) (human, UniProt P16070 21-220); experiment: as above
T3 construct: Bought recombinant Fc chimera; Fc part of the bought chimera not given

[4] = molecular target: T4, rHuman P-Cadherin/Fc Chimera, CF (R&D Systems Cat#861-PC) (human, UniProt P22223 108-654); experiment: as above
T4 construct: Bought recombinant Fc chimera; Fc part of the bought chimera not given

[5] = molecular target: T5, Recombinant Human DLL4 (R&D Systems Cat#1506-D4/CF) (human, UniProt Q9NR61 27-524); experiment: as above
T5 construct: Bought recombinant protein; also called delta-like protein 4; Delta-like 4

[6] = molecular target: T6, rHuman Erythropoietin R/Fc Chimera, CF (R&D Systems Cat#963-ER) (human, UniProt P19235 25-250); experiment: as above
T6 construct: Bought recombinant Fc chimera; also called EPO R; EPO R/Fc; Fc part of the bought chimera not given
T6 sequence (looked up): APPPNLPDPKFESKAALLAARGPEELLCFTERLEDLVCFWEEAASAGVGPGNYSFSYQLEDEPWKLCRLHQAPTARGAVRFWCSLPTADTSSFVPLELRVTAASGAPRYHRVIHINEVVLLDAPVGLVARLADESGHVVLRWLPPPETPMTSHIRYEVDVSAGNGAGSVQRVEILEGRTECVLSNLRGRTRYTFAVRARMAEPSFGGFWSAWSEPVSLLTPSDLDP

[7] = molecular target: T7, rHuman EGF R/Fc Chimera, CF (R&D Systems Cat#344-ER) (human, UniProt P00533 25-645); experiment: as above
T7 construct: Bought recombinant Fc chimera; also called epidermal growth factor receptor; Fc part of the bought chimera not given

[8] = molecular target: T1, rHuman Notch-1/Fc Chimera, CF (R&D …); experiment: MSD Multispot ECL, antigen spotted on plate, Fab in solution; blank spot of the row 297
[9] = molecular target: T2, rHuman HGF R/c-MET/Fc Chimera, CF (R&D …); experiment: as above
[10] = molecular target: T4, rHuman P-Cadherin/Fc Chimera, CF (R&D …); experiment: as above
[11] = molecular target: T5, Recombinant Human DLL4 (R&D Systems …); experiment: as above
[12] = molecular target: T6, rHuman Erythropoietin R/Fc Chimera, CF …; experiment: as above
[13] = molecular target: T7, rHuman EGF R/Fc Chimera, CF (R&D …); experiment: as above
[14] = molecular target: T1, rHuman Notch-1/Fc Chimera, CF (R&D …); experiment: MSD Multispot ECL, antigen spotted on plate, Fab in solution; blank spot of the row 351
[15] = molecular target: T2, rHuman HGF R/c-MET/Fc Chimera, CF (R&D …); experiment: as above
[16] = molecular target: T3, rHuman CD44/Fc Chimera, CF (R&D Systems …); experiment: as above
[17] = molecular target: T4, rHuman P-Cadherin/Fc Chimera, CF (R&D …); experiment: as above
[18] = molecular target: T5, Recombinant Human DLL4 (R&D Systems …); experiment: as above
[19] = molecular target: T6, rHuman Erythropoietin R/Fc Chimera, CF …; experiment: as above
[20] = molecular target: T7, rHuman EGF R/Fc Chimera, CF (R&D …); experiment: as above
[21] = molecular target: T1, rHuman Notch-1/Fc Chimera, CF (R&D …); experiment: MSD Multispot ECL, antigen spotted on plate, Fab in solution; blank spot of the row 316
[22] = molecular target: T2, rHuman HGF R/c-MET/Fc Chimera, CF (R&D …); experiment: as above
[23] = molecular target: T3, rHuman CD44/Fc Chimera, CF (R&D Systems …); experiment: as above
[24] = molecular target: T4, rHuman P-Cadherin/Fc Chimera, CF (R&D …); experiment: as above
[25] = molecular target: T5, Recombinant Human DLL4 (R&D Systems …); experiment: as above
[26] = molecular target: T6, rHuman Erythropoietin R/Fc Chimera, CF …; experiment: as above
[27] = molecular target: T7, rHuman EGF R/Fc Chimera, CF (R&D …); experiment: as above
[28] = molecular target: T1, rHuman Notch-1/Fc Chimera, CF (R&D …); experiment: MSD Multispot ECL, antigen spotted on plate, Fab in solution; blank spot of the row 300
[29] = molecular target: T2, rHuman HGF R/c-MET/Fc Chimera, CF (R&D …); experiment: as above
[30] = molecular target: T4, rHuman P-Cadherin/Fc Chimera, CF (R&D …); experiment: as above
[31] = molecular target: T6, rHuman Erythropoietin R/Fc Chimera, CF …; experiment: as above
[32] = molecular target: T7, rHuman EGF R/Fc Chimera, CF (R&D …); experiment: as above

B1: Fab VH5-51_IGHD5-18*01>3_IGHJ4*01 G100K/G104T F29A & V3-4_IGLJ1*01 (Fab, V domains shown)
VH: EVQLVQSGAEVKKPGESLKISCKGSGYSATSYWIGWVRQMPGKGLEWMGIIYPGDSDTRYSPSFQGQVTISADKSISTAYLQWSSLKASDTAMYYCARRKYSYTYDYFDYWGQGTLVTVSS
VL: QTVVTQEPSFSVSPGGTVTLTCGLSSGSVSTSYYPSWYQQTPGQAPRTLIYSTNTRSSGVPDRFSGSILGNKAALTITGAQADDESDYYCVLYMGSGISYVFGTGTKVTVL
notes: Fab made in E. coli; VH cloned into Plasmid A (CH1, His6 and Flag tags), lambda VL into Plasmid E (lambda CL); also called KT F29A
[1]
  ECL signal: 601
[2]
  ECL signal: 985
[3]
  ECL signal: 621
[4]
  ECL signal: 502
[5]
  ECL signal: 22900
[6]
  ECL signal: 586
[7]
  ECL signal: 887

B2: Fab VH5-51_IGHD5-18*01>3_IGHJ4*01 G100K/G104T G35A & V3-4_IGLJ1*01 (Fab, V domains shown)
VH: B1 VH with A29F, G35A
VL: B1 VL
notes: Fab made in E. coli; VH cloned into Plasmid A (CH1, His6 and Flag tags), lambda VL into Plasmid E (lambda CL); also called KT G35A
[8]
  ECL signal: 400
[9]
  ECL signal: 939
[10]
  ECL signal: 305
[11]
  ECL signal: 53600
[12]
  ECL signal: 506
[13]
  ECL signal: 760

B3: Fab VH5-51_IGHD5-18*01>3_IGHJ4*01 G100K/G104T T30A & V3-4_IGLJ1*01 (Fab, V domains shown)
VH: B1 VH with A29F, T30A
VL: B1 VL
notes: Fab made in E. coli; VH cloned into Plasmid A (CH1, His6 and Flag tags), lambda VL into Plasmid E (lambda CL); also called KT T30A
[14]
  ECL signal: 539
[15]
  ECL signal: 868
[16]
  ECL signal: 698
[17]
  ECL signal: 438
[18]
  ECL signal: 24300
[19]
  ECL signal: 553
[20]
  ECL signal: 853

B4: Fab VH5-51_IGHD5-18*01>3_IGHJ4*01 G100K/G104T S28A & V3-4_IGLJ1*01 (Fab, V domains shown)
VH: B1 VH with S28A, A29F
VL: B1 VL
notes: Fab made in E. coli; VH cloned into Plasmid A (CH1, His6 and Flag tags), lambda VL into Plasmid E (lambda CL); also called KT S28A
[21]
  ECL signal: 432
[22]
  ECL signal: 1040
[23]
  ECL signal: 497
[24]
  ECL signal: 317
[25]
  ECL signal: 35400
[26]
  ECL signal: 586
[27]
  ECL signal: 839

B5: Fab VH5-51_IGHD5-18*01>3_IGHJ4*01 G100K/G104T I34A & V3-4_IGLJ1*01 (Fab, V domains shown)
VH: B1 VH with A29F, I34A
VL: B1 VL
notes: Fab made in E. coli; VH cloned into Plasmid A (CH1, His6 and Flag tags), lambda VL into Plasmid E (lambda CL); also called KT I34A
[28]
  ECL signal: 564
[29]
  ECL signal: 1080
[30]
  ECL signal: 349
[31]
  ECL signal: 505
[32]
  ECL signal: 883
